In patent US5886157A, “Expression and purification of human cytochrome P450” (Vanderbilt University, priority 1994, dated 1999):

Tests used:
[1] = target: recombinant human P450 1A2 (construct 1024) expressed in E. coli (human) (UniProt P05177)
[2] = target: P450 2C1028 (modified human cytochrome P450 2C10 expressed in E. coli) (human) (UniProt P11712); conditions: scale: nmol product formed min^-1
[3] = target: P450 2C9/10 purified from human liver microsomes (human) (UniProt P11712); conditions: scale: nmol product formed min^-1
[4] = target: P450 2C1029 (truncated human cytochrome P450 2C10 expressed in E. coli) (human) (UniProt P11712); conditions: scale: nmol product formed min^-1
[5] = target: recombinant human P450 2E1 (construct 2E1 #18) expressed in E. coli (human) (UniProt P05181); conditions: scale: nmol 6-hydroxychlorzoxazone formed min^-1
[6] = substrate: CCOc1ccc2nc3ccc(=O)cc-3oc2c1; assay: 7-Ethoxyresorufin O-deethylation in P450 1A1 reconstituted system; format: biochemical, human; conditions: other: 5 nM P450 1A1, 10 nM NADPH-cytochrome P450 reductase
Procedure: (§1) FIG. 42. Substrate concentration-dependent benzo(a)pyrene 3-hydroxylation (A) and 7-ethoxyresorufin O-deethylation (B) in a P450 1A1 reconstutited system. Benzo(a)pyrene 3-hydroxylation were assayed with 25 nM P450 1A1 and 50 nM NADPH-cytochrome P450 reductase. 7-Ethoxyresorufin O-deethylation were assayed with 5 nM P450 1A1 and 10 nM NADPH-cytochrome P450 reductase.
(§2) 7-Ethoxyresorufin O-dealkylation (Burke and Mayer, Drug Metab. Dispos. 3:245-253 (1975); Burke and Mayer, Chem.-Biol. Interactions 45:243-258 (1983)) and benzo(a)pyrene 3-hydroxylation (Nebert and Gelboin, J. Biol. Chem. 243:6242-6249 (1968); Guengerich in Principles and Methods of Toxicology, Hayes, A. W., Ed., 777-814, Raven Press, New York (1989)) were determined as described elsewhere. Protein concentrations were estimated using a bicinchoninic acid (BCA) method according to the instructions supplied by the manufacturer (Pierce Chemical Co., Rockford, Ill.).
(§3) Catalytic activities. The purified P450 1A1 protein was examined for catalytic activities in a conventional reconstitution system containing rabbit NADPH-P450 reductase and L-α-1,2-dilauroyl-sn-glycero-3-phosphocholine. P450 1A1 catalyzed benzo(a)pyrene 3-hydroxylation and 7-ethoxyresorufin O-deethylation at rates of 1.7 and 6.2 nmol product formed min^-1 (nmol P450)^-1, respectively (FIGS. 41A,B). […]

[7] = substrate: c1ccc2c(c1)cc1ccc3cccc4ccc2c1c34; assay: Benzo(a)pyrene 3-hydroxylation in P450 1A1 reconstituted system; format: biochemical, human; conditions: other: 25 nM P450 1A1, 50 nM NADPH-cytochrome P450 reductase
Procedure: as §1, §2, §3

Question: “rabbit liver NADPH-P450 reductase (from UniProt P00389) (enzyme)” was tested. Which anaerobic reduction of P450 1A2 (rate of reduction, formation of the Fe2+.CO complex) [1] did it give?
Answer: > 3 min⁻¹

Question: How did the tolbutamide hydroxylation, reconstituted system [2] turn out when “human liver cytochrome b5 (from UniProt P00167)” was run?
Answer: 0.57

Question: And the tolbutamide hydroxylation, reconstituted system [3]?
Answer: 0.51

Question: And the tolbutamide hydroxylation, reconstituted system [4]?
Answer: 1.77

Question: What about the chlorzoxazone 6-hydroxylation by purified P450 2E1 (Vmax) [5] of the same molecule?
Answer: 5.56

B1: purified recombinant human cytochrome P450 1A1, N-terminally modified (construct #17, SEQ ID NO: 5), expressed in E. coli (Homo sapiens; L2A) (protein)
chain: AFPISMSATEFLLASVIFCLVFWVIRASRPQVPKGLKNPPGPWGWPLIGHMLTLGKNPHLALSRMSQQYGDVLQIRIGSTPVVVLSGLDTIRQALVRQGDDFKGRPDLYTFTLISNGQSMSFSPDSGPVWAARRRLAQNGLKSFSIASDPASSTSCYLEEHVSKEAEVLISTLQELMAGPGHFNPYRYVVVSVTNVICAICFGRRYDHNHQELLSLVNLNNNFGEVVGSGNPADFIPILRYLPNPSLNAFKDLNEKFYSFMQKMVKEHYKTFEKGHIRDITDSLIEHCQEKQLDENANVQLSDEKIINIVLDLFGAGFDTVTTAISWSLMYLVMNPRVQRKIQEELDTVIGRSRRPRLSDRSHLPYMEAFILETFRHSSFVPFTIPHSTTRDTSLKGFYIPKGRCVFVNQWQINHDQKLWVNPSEFLPERFLTPDGAIDKVLSEKVIIFGMGKRKCIGETIARWEVFLFLAILLQRVEFSVPLGVKVDMTPIYGLTMKHACCEHFQMQLRS
notes: made in house; host or cells: E. coli DH5α, vector pCW
Question: B1 was tested. Which Km [6] did it give?
Answer: 0.58 µM

Question: What about the kcat [6] of the same molecule?
Answer: 8.3 nmol product formed min^-1 (nmol P450)^-1

Question: And the Km [7]?
Answer: 15 µM

Question: What about the kcat [7] of the same molecule?
Answer: 2.5 nmol product formed min^-1 (nmol P450)^-1
